# Assay results from patent US20160347840A1 (Janssen / Centocor, published 2016).
# T1: isolated cynomolgus PSMA (cynoPSMA) extracellular domain, Fc removed (cynomolgus, UniProt Q04609 44-750 (human entry), N-linked glycans seen at Asn-76, -121, -140, -195, -459, -476, -613 and -638 (numbering of SEQ ID NO: 141))
# T1 construct: Expressed in GnTI- cells as a C-terminal fusion to huIgG1 Fc; the ECD starts at residue 44 of that entry; the structure includes residues 57-750; also called cynomolgous PSMA dimer
# T1 chain: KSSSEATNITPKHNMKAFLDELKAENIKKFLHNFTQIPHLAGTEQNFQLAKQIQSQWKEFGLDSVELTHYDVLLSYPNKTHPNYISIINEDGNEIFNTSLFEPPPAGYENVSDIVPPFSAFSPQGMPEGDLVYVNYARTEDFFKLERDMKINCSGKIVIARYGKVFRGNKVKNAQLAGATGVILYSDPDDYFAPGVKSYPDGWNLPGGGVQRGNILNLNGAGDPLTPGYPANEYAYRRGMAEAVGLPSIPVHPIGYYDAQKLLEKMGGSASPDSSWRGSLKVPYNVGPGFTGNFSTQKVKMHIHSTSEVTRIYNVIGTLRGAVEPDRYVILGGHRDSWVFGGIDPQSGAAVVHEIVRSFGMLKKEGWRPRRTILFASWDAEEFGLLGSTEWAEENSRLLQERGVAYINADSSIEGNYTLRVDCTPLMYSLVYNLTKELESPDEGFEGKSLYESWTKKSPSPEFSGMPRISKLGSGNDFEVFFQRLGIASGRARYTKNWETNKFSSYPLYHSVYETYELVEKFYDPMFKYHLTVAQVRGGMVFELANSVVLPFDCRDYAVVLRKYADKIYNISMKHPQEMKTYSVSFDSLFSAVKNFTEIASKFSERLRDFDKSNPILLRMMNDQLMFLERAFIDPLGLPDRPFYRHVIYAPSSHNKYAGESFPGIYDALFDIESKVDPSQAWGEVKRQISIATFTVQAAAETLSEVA
# T2: chimpanzee PSMA extracellular domain (PSMW8), 6His and Avi tag (chimpanzee, UniProt Q04609 44-750 (human entry), biotinylated in bead-based selections and the ELISA screen)
# T2 construct: Cloned along with a 6His and Avi tag; Buffer with ZnCl2 to stabilise PSMA dimerisation; also called pan 229
# T2 chain: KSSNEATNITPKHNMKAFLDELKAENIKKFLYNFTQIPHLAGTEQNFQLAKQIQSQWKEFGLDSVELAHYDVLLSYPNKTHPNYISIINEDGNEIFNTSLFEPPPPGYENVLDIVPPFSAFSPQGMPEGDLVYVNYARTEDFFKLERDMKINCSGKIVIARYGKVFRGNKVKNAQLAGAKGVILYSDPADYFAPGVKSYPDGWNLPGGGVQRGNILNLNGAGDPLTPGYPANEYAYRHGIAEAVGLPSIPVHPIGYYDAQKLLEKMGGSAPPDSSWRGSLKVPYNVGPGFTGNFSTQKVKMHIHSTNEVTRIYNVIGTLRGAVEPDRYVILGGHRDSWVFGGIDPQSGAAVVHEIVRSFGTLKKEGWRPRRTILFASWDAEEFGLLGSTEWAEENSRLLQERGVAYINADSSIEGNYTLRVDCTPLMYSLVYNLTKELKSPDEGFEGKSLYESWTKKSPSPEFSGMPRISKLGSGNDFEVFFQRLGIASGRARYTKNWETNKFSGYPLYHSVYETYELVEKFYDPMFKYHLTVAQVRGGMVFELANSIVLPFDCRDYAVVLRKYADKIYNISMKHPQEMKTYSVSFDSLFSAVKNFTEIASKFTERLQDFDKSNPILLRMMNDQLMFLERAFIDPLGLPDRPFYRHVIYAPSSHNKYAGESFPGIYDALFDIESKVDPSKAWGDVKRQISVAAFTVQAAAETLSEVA
# B1: G11 (antibody, V domains shown)
# VH: EVQLLESGGGLVQPGGSLRLSCAASGFTFSSYGMSWVRQAPGKGLEWVSGINGGGGSKYYADSVKGRFTISRDNSKNTLYLQMNSLRAEDTAVYYCAKTSAQRFDYWGQGTLVTVSS
# VL: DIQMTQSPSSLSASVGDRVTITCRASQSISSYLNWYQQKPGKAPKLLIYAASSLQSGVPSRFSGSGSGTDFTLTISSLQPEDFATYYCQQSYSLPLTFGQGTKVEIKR
# notes: In-house phage-derived anti-CD3 antibody; non-cyno cross-reactive, agonistic; positive control; also called G11 mAb
# B2: P233FR9_H10 (designed binder)
# chain: LPAPKNLVVSRVTEDSARLSWTAPDAAFDSFAIGYWEWDDDGEAIVLTVPGSERSYDLTGLKPGTEYPVYIAGVKGGQWSFPLSAIFTT
# notes: also called H10 FN3 domain; P233FR9_10; not shown: C-terminal poly-histidine tag
# Tests used:
# [1] = target: T3, cynomolgus CD3E on primary cynomolgus CD4+ T cells (cynomolgus, UniProt Q95LI5 22-198); assay: stated for the flow cytometry assay on primary cynomolgus CD4+ T cells
# T3 construct: whole, on cells; On the cells CD3E stands in the CD3/T cell receptor complex
# [2] = target: T4, cell-surface CD3E on primary human T cells (human, UniProt P07766 23-207); assay: flow cytometry on primary human T cells, positive control
# T4 construct: whole, on cells; On the cells CD3E stands in the CD3/T cell receptor complex; also called human CD3
# Procedure: The resulting panel of anti-CD3 antibodies was tested for binding against cell-surface CD3E on primary human T cells. To do this, binding of antibodies from expression supernatants was visualized using a polyclonal anti-human secondary antibody and analyzed by flow cytometry. Briefly, binding of anti-CD3 antibodies to cell-surface CD3E was assessed by flow cytometry using primary Human T lymphocytes purified by negative selection (Biological Specialty, Colmar, USA). Expression supernatants or purified antibodies were normalized to 10 μg/ml in media or FACS buffer (BD BioSciences), respectively. 2×10⁵ cells were aliquoted into wells of a 96 well round-bottomed plate (CoStar) for labeling. Antibodies in expression supernatant were added to cells and incubated for 45 min at 4° C. Following centrifugation at 1300 rpm for 3 min and removal of supernatant, 50 μL of anti-human IgG (H+L) Alexa Fluor 647 secondary antibody (Life technologies Inc.) was incubated with the cells at a final concentration of 10 μg/mL for 30 min at 4° C. away from direct light. Following washing and resuspension in 30 μL FACs buffer (BD BioSciences). Sample collection was performed on an Intellicyt HTFC system using ForeCyt software. […] Graphs were generated in GraphPad Prism version 5 using mean fluorescence intensity values. […]
# [3] = target: T5, human PSMA on tumor cells (LNCaP, MDA-PCA-2B, VCAP, 22Rv1) (human, UniProt Q04609 1-750); assay: cell-based or functional assay
# [4] = target: T1, isolated cynomolgus PSMA (cynoPSMA) …; assay: X-ray crystal structure of the complex
# Procedure: The H10 FN3 Domain/cynoPSMA complex was prepared by mixing cynoPSMA with H10 FN3 domain at a molar ratio of 1:3 (excess FN3 domain) while dialyzing for 48 h at 4° C. against 20 mM Hepes pH 7.0, 0.5 mM ZnCl₂. The complex was then eluted from a monoS column with a gradient of 48-68 mM NaCl, 20 mM Hepes pH 7.5, 10% glycerol and concentrated to 3.4 mg/mL. Crystals suitable for X-diffraction were obtained from 25% PEG 3 kDa, 0.2 M NH₄Cl, 0.1 M Na Acetate pH 4.5 using the sitting drop vapor-diffusion method at 20° C.
# For X-ray data collection, the crystal was soaked for a few seconds in a cryo-protectant solution containing mother liquor supplemented with 20% glycerol, and then frozen in liquid nitrogen. X-ray diffraction data were collected with a Dectris Pilatus 6M Pixel Array detector at the beamline 17-ID of the Advanced Photon Source (APS) at Argonne National Laboratory. Diffraction data were processed with the program HKL2000 (Otwinowski & Minor, 1997).
# [5] = target: T2, chimpanzee PSMA extracellular domain …; assay: hit from CIS-display panning and ELISA screen on PSMA of this species (column Antigen species)
# [6] = target: T5, human PSMA on tumor cells (LNCaP, …); assay: cell-based or functional assay; remark: listed apart in the source
# T5 sequence (Q04609 whole entry): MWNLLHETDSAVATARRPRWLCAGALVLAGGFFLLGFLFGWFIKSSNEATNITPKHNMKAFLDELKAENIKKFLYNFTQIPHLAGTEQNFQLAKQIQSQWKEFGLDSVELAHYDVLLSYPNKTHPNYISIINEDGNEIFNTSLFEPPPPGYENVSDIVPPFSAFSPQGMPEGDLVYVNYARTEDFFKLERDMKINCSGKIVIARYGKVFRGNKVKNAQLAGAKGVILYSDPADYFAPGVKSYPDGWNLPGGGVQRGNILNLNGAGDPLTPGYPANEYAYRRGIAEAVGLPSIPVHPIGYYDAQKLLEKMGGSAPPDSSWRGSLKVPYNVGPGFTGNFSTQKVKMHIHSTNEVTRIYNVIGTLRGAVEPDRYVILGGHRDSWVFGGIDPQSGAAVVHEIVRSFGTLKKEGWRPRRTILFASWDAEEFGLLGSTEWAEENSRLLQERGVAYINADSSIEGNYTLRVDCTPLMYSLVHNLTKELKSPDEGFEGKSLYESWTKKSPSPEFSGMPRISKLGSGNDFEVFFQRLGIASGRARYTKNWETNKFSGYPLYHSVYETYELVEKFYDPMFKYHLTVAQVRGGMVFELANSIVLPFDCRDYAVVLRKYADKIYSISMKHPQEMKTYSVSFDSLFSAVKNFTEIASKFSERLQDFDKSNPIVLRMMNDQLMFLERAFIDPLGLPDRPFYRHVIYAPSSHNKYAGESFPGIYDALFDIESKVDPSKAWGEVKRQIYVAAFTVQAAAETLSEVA
# T4 sequence (P07766 23-207): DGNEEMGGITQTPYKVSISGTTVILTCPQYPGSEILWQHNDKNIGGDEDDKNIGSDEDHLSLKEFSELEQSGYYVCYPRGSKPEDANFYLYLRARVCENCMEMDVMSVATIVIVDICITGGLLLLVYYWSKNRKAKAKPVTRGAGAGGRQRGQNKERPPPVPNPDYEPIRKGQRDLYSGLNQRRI
# T3 sequence (Q95LI5 22-198): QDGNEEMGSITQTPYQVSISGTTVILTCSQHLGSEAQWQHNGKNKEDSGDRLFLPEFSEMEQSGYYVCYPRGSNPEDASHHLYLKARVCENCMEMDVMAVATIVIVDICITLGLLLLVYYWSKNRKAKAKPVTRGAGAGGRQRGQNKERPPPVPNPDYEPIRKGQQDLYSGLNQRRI
Binder,binding result [1],binding result [2],"LNCaP IC50 (nM), cytotoxicity of the FN3 domain-vcMMAF conjugate (CellTiter-Glo) [3] [nM]",binding result [4],binding result [5],"LNCaP cells IC50 (nM), cytotoxicity of FN3 domain-drug conjugate [6] [nM]","MDA-PCA-2B cells IC50 (nM), cytotoxicity of FN3 domain-drug conjugate [6] [nM]","VCAP cells IC50 (nM), cytotoxicity of FN3 domain-drug conjugate [6] [nM]"
B1,no binding,binds,,,,,,
B2,,,0.4,binds,binds,0.5,5.8,25.9
